Measurements from patent US20240182590A1, “METHOD OF TREATMENT OF PATIENTS HAVING REDUCED SENSITIVITY TO A BCL-2 INHIBITOR” (argenx BV, priority 2020, published 2024).
Entries after “also recorded” stand apart in the source; their conditions may differ.

B1: cusatuzumab: monoclonal IgG1 anti-CD70 antibody, afucosylated for enhanced ADCC; CDR, VH and VL sequences in Table 1 (antibody, V domains shown)
VH: EVQLVESGGGLVQPGGSLRLSCAASGFTFSVYYMNWVRQAPGKGLEWVSDINNEGGTTYYADSVKGRFTISRDNSKNSLYLQMNSLRAEDTAVYYCARDAGYSNHVPIFDSWGQGTLVTVSS
VL: QAVVTQEPSLTVSPGGTVTLTCGLKSGSVTSDNFPTWYQQTPGQAPRLLIYNTNTRHSGVPDRFSGSILGNKAALTITGAQADDEAEYFCALFISNPSVEFGGGTQLTVLG

Tests used:
[1] = tested on: total mononuclear cell fraction of M4/5 samples; settings: M4/5 AML samples, ex vivo; cited from earlier work
[2] = cited from earlier work
[3] = tested on: ROS-low LSCs from mono-AML and prim-AML; settings: versus ROS-low LSCs from primitive AML (Pei et al. 2020); cited from earlier work
[4] = tested on: leukemic stem cells (LSCs) in AML patients; settings: in combination with azacitidine; see WO2018/229303; cited from earlier work
[5] = tested on: CD70-induced CD27 signaling; settings: Silence et al. (2014); cited from earlier work
[6] = tested on: CD70 positive monocytic AML cells; test: Cusatuzumab-mediated NK-dependent ADCC on primary AML bone marrow samples; format: cell-based, human; settings: 10 μg/ml, 24 hours
Text: FIG. 7B is a bar graph showing the effect on monocytic and primitive AML cells. following administration of cusatuzumab, 41D12 FcDead antibody and a vehicle control. […] One-way ANOVA test was used to determine significance. *p<0.05.
FIG. 7C is a bar graph showing the effect on monocytic AML cells following administration of cusatuzumab, 41D12 FcDead antibody and a vehicle control. […] One-way ANOVA test was used to determine significance. ***p<0.001.
Cusatuzumab is an afucosylated anti-human CD70 antibody with enhanced properties to mediate NK-dependent antibody-dependent cellular cytotoxicity (ADCC) (Silence et al. 2014). VEN+AZA resistant CD70 positive monocytic AML (CD45^bright/SSC^high/CD38^+/CD34^−/CD33^+/CD11b^+/CD70^+) and mixed phenotype samples containing CD70 positive monocytic cells (CD45^bright/SSC^high/CD38^+/CD34^−/CD33^+/CD11b^+/CD70^+) and CD70 negative VEN+AZA sensitive primitive cells (CD45^medium/SSC^low/CD34^−/CD33^+/CD11b^+/CD70^− containing both CD38^+ and CD38^− populations) (FIG. 7A) were tested for sensitivity to cusatuzumab-mediated ADCC. Both types of primary bone marrow samples were treated with cusatuzumab at 10 μg/ml concentration and co-incubated with human NK cells isolated by a negative selection from healthy donor PBMCs. NK cells were added in 1:5 and 1:15 target to effector cells (T:E) ratio to monocytic AML and mixed phenotype bone marrow samples, respectively. Cells were co-cultured for 24 hours at 37° C. in cell culture incubator. Flow cytometry analysis was performed in order to measure number of primitive and monocytic AML cells and estimate the level of ADCC for particular sample. […] This supports the specificity of cusatuzumab-mediated effects in the targeting of CD70-positive VEN+AZA resistant monocytic AML cells.

[7] = tested on: VEN+AZA resistant monocytic AML cells; test: Patient-derived xenograft mouse model, monocytic AML cells in mouse bone marrow; format: in vivo, NSGS mice; settings: 3 doses every 3 days, cusatuzumab 10 mg/kg, Ven 100 mg/kg + Aza 3 mg/kg
Protocol: FIG. 10 is a bar graph showing the efficacy of anti-CD70 antibody treatment in the presence of NK cells in a patient-derived xenograft mouse model. NSGS mice were engrafted with VEN+AZA resistant monocytic AML bone marrow sample. When engraftment level in bone marrow reached around 25% of leukemic cells, animals were treated 3 times every 3 days with cusatuzumab or VEN+AZA with or without a single infusion of 1.5×10^6 NK cells. After 9 days animals were sacrificed, bone marrow from femur isolated and the number of malignant monocytic cells in bone marrow was determined. […] Mann-Whitney test was used to determine significance. *p<0.05, **p<0.01, ***p<0.001, ****p<0.0001.
Patient samples injected in NSGS mice engraft in mouse bone marrow. The efficiency of anti-leukemic compounds can be measured stringently using therapeutic approaches after full engraftment of patient-derived samples and by determination of the reduction of malignant cells in mouse bone marrow. 2×10^6 cells from bone marrow from VEN+AZA resistant monocytic AML per NSGS mouse were engrafted for 42 days. One cohort of animals was treated with vehicle, combination of 100 mg/kg Ven and 3 mg/kg Aza or 10 mg/kg cusatuzumab. […] One day after the third dose animals were sacrificed and bone marrow from femur was isolated and samples were analysed by flow cytometry to determine the number of monocytic AML cells. […]

[8] = target: T1, interaction of CD70 with its receptor CD27 (Homo sapiens, UniProt P32970); settings: Silence et al. (2014); cited from earlier work
T1 sequence (P32970 1-193): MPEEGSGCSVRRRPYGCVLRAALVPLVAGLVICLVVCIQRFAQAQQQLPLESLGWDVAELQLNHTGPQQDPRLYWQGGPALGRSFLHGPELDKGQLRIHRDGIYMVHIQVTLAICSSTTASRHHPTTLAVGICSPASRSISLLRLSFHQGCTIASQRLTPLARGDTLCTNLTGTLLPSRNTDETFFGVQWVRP

[9] = tested on: CD70-expressing tumor cells; settings: cited from earlier work
[10] = tested on: LSCs from VEN+AZA resistant monocytic AML bone marrow samples; test: Colony forming unit (CFU) assay after incubation with antibody and NK cells; format: cell-based, human; settings: 10 μg/ml antibody, NK cells 1:5 T:E, 24-hour incubation, then 14 days in methocult medium
Protocol: FIG. 9 is a bar graph showing the effect of antibody treatment on leukemic stem cells from CD70 positive VEN+AZA resistant monocytic AML bone marrow samples. Data is normalized to the no antibody control colony forming units (CFU) for isotype control, blocking anti-CD70 antibody 41D12 FcDead and cusatuzumab. VEN+AZA resistant monocytic AML bone marrow samples were incubated with NK cells (1:5 T:E ratio) in the presence of antibodies (10 μg/ml) and then cultured in CFU medium in order to determine if LSCs were also efficiently targeted by cusatuzumab-mediated NK-dependent ADCC. […] One-way ANOVA test was used to determine significance. ****p<0.0001.
In order to test if CD70 positive LSCs from VEN+AZA resistant monocytic AML bone marrow samples could be targeted by cusatuzumab, bone marrow samples coming from VEN+AZA resistant samples were first incubated with cusatuzumab (10 μg/ml) and NK cells isolated from PBMCs from healthy donor (1:5 T:E ratio). After a 24-hour incubation samples were moved to methocult medium and further cultured in order to check if LSCs were targeted by cusatuzumab-mediated ADCC. No treatment, human IgG1 isotype control and blocking 41D12 FcDead antibody were used as negative controls. Cells were incubated in cell culture incubator at 37° C. for 14 days and colony forming units (CFU) were estimated by counting growing colonies.

Row | Molecule | venetoclax sensitivity [1] | aqueous solubility [2] | resistance of ROS-low LSCs from monocytic AML [3] | leukemic stem cells (LSCs) in AML patients [4] | CD70-induced CD27 signaling [5] | NK cell-dependent ADCC of monocytic cells ([6]; VEN+AZA resistant monocytic AML bone marrow sample, NK cells 1:5 T:E) | NK cell-dependent ADCC of monocytic cells ([6]; VEN+AZA resistant monocytic AML bone marrow sample, NK cells 1:5 T:E, listed as Cusatuzumab) | NK cell-dependent ADCC of monocytic cells ([6]; mixed phenotype AML bone marrow sample, NK cells 1:15 T:E) | NK cell-dependent ADCC of monocytic cells ([6]; mixed phenotype AML bone marrow sample, NK cells 1:15 T:E, listed as Cusatuzumab) | malignant human CD45+CD11b+CD117− cells in mouse bone marrow ([7]; in the absence of human NK cells) | malignant human CD45+CD11b+CD117− cells in mouse bone marrow ([7]; in the presence of human NK cells (1.5×10^6)) | interaction of CD70 with its receptor CD27 [8] | antibody dependent cellular phagocytosis (ADCP) of CD70-expressing cells ([9]; Silence et al. (2014)) | lysis of CD70-expressing tumor cells via antibody dependent cell-mediated cytotoxicity (ADCC) [9] | lysis of CD70-expressing tumor cells via complement dependent cytotoxicity (CDC) [9] | number of growing colonies (CFU) versus no treatment control [10]
1 | CC1(C)CCC(CN2CCN(c3ccc(C(=O)NS(=O)(=O)c4ccc(NCC5CCOCC5)c([N+](=O)[O-])c4)c(Oc4cnc5[nH]ccc5c4)c3)CC2)=C(c2ccc(Cl)cc2)C1 [venetoclax, 4-(4-{[2-(4-chlorophenyl)-4,4dimethylcyclohex-1-en-1-yl]methyl}piperazin-1-yl)-N-({3-nitro-4-[(tetrahydro-2H-pyran-4ylmethyl)amino]phenyl}sulfonyl)-2-(1H-pyrrolo[2,3-b]pyridin-5-yloxy)benzamide] | decreased | very low | increased resistance |  |  |  |  |  |  |  |  |  |  |  |  | 
2 | B1 |  |  |  | efficiently reduced | inhibit CD70-induced CD27 signaling | significantly targeted | significantly mediate NK-dependent cell killing | significantly targeted | significantly mediate NK-dependent cell killing | no significant effect | significant reduction; also recorded: significantly reduced levels of monocytic AML cells | inhibit the interaction of CD70 with its receptor CD27 | increase antibody dependent cellular phagocytosis (ADCP) | lyse CD70-expressing tumor cells | lyse CD70-expressing tumor cells | clear drop in the number of growing colonies; also recorded: significantly reduce the number of LSCs
